According to PMC8632923:

How the values were obtained:
Details in all cases: reference: wild type; sites Y38
Drp1 [1] = biological target: Drp1 (UniProt O00429); assay: co-IP, immunoblot
Drp1 [2] = biological target: Drp1 (UniProt O00429); assay: Flag-bead Fis1 pull-down of recombinant Drp1
Drp1 [3] = biological target: Drp1 (UniProt O00429); assay: anti-Flag IP of Fis1-Flag, Drp1 blot

Measured: binding against the reference

Fis1 (from UniProt Q9Y3D6) Y38F
weaker: all assays above
